Laboratory results taken from the nanobody polyreactivity screen of Harvey et al. (2022).

Assay: yeast display, Sf9 membrane polyspecificity reagent, FACS + sequencing; frameworks hold sequencing errors
Summary of the method: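 Nanobodies from a synthetic yeast display library (Saccharomyces cerevisiae BJ5465), induced 36–48 hours with galactose, were stained 1 hour at 4 °C with 10% biotinylated, detergent-solubilized Sf9 membrane reagent, enriched on streptavidin microbeads, then FACS-sorted. Anti-HA (expression) and streptavidin (reagent binding) fluorescence set low and high (top ~1%) gates. Polyreactivity labels come from the gate of origin. Genes were colony-PCR amplified, MiSeq 2 × 250 sequenced and filtered by CDR length.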

| Sequence | polyreactivity (PSR sort gate) |
| --- | --- |
| QVQLVESGGGLVQAAGSLRLSCAASGYIFQYYAMGWYRQAPGKERELVAAITGGGSTKYADSVKGRFTISRDNAKNTVYLQMNSLKPEDTAVYYCAASLWYRISKYDYWGQGTQVTVSS | high polyreactivity |
| QVQLVESGGGLVQAAGSLRLSCAASVGTFTPNVMGWSRKAPGKERELVAAIDDSGSRTYYADSVKGRFTISRVNAKNTVYLQMNSLKPEDTAVYYCAVYWYGTFPMYYWGQGTQVTVSS | low polyreactivity |
| QVQLVESGGGLVQAAGSLRLSCAASVITFVKNAMGWYRQAPGKERELVARIRIGGSTSYADSVKGRFTISRDYAKNTFYLQLNSLKPEDTAVYYCARYAGRLSYRYEYWGQGTQVTVSS | high polyreactivity |
| QVQLVESGGGLVQAAGSLRLSSAPSVSSFRNKAMGWYRQAPGKERELVASISSSGDSTYADSVKGRFTISRDNAKNTVSLQMNSLKPEDTAVYYCARDYLSPYAVDYWGQGTQVTVSS | low polyreactivity |
| QVQLVESGGGLVQAARSHRVSCAASGSIFWGNVKGWYRQAPGNESELVAAINSGGSTYYADSVKGRFTISRDNAKNTVYLQMNSLIPEDTAVYYCAAAINRYRGTFNYWGQGTQVSVSS | high polyreactivity |
| QVQLVESGGGLVQAEGSLRLSCAASGFIFRYNAMGWYRQAPGKERELVAAITSGGSTNYADSVKGRFTISRDNAKNTVYLQMNSLKPEDTAVYYCNKYRPYGRIYHLAYGRDYWGQGTQVTVSS | high polyreactivity |
| QVQLVESGGGLVQAGAILRVSCAASGISLQYAMGCYRQAPGKERELVASISSRGTSTYYADSVKGRFTISRDNAKNTVYLQMNSLKPEDTAVYYCAARVRWWSPGGYWGQGTQVTVSS | high polyreactivity |
| QVQLVESGGGLVQAGASLRLRCAASGRTFYYKTMGWYRQAPGKERELVAAITRNGGSTYYADSVKGRFTISRDKAKNTVYLQMKSLKLEDTAVYSCGAEGPSHRLNVRQVKGSDSWGQGTQVSVSS | low polyreactivity |
| QVQLVESGGGLVQAGASLRLSCAASGFTFDSYAMGWYRQAPGKDRELVAVISATGAITYYADSVKGRFTISRDNAKNTVYLPMNSLKPEDTAVYYCAVQVSWSYYRYGYWGQGTQVTVSS | low polyreactivity |
| QVQLVESGGGLVQAGASLRLSCAASGIIFNVKAMGWYRQAPGKERELVAAITSGANTYYADSVKGRFTISRDNAKNTVYLQMNSLKPEDSAVYYCNKVGSNSVGPGYDYWGHGTQVTVSS | high polyreactivity |
| QVQLVESGGGLVQAGASLRLSCAASGIILSVYAMGWYRQAPGKERELVAAITTVGNTYYADSVKGRFTISRDNAKNTVYLEMNCLKPEDTAVYYCAAKRWTTYKYNYWGQGTQVTVSS | high polyreactivity |
| QVQLVESGGGLVQAGASLRLSCAASGITLDLYDMGWYRQAPGKERELVAAISRSGVRTYYADSVKWRFTISRDNAKNTVYFQMNSLKPEDTSVYYCNKGYARRYASGYDYWGQGTQVSVSS | high polyreactivity |
| QVQLVESGGGLVQAGASLRLSCAASGRIFSRNTMGWSRQAPGKECEFVAAISQSGGRTYYADSVKGRFTISRDNAKNTVYLQMNSLKPEDTAVYYCNAQFARSSGFNYWGQGTQVTVSS | high polyreactivity |
| QVQLVESGGGLVQAGASLRLSCAASGRIFVVNAMGWYRQAPGKERELVATITRSGGITYYADSVKGRFTISRDNAKNTVYLQMNSLKPEDTAVYYCNADVLFYTYYTRGRFDFDYWGQGSQVTVSS | low polyreactivity |
| QVQLVESGGGLVQAGASLRLSCAASGRTFEANTMGWYRQAPGKERELVAAITRNGGSTYYADSVKGRFTISRDNAKNTVYLQMNSLKPEDPAVYYCAARSAYRSRHKYDYWGQGTQVTVSS | high polyreactivity |
| QVQLVESGGGLVQAGASLRLSCAASGRTFWFYAMGWYRQAPGQERELVAAISSGGSTNYADSVKGLFTISRDNAKNTVYLQMNSLKPEDTAVYYCAKVGNIPYGTRYYYNRYDYWGQGTQVTVSS | low polyreactivity |
| QVQLVESGGGLVQAGASLRLSCAASGRTIYANAMGWYIQAPGKERELVAAISRRGGNTYYADSVKGRFTISRDNAKNTVYLQMNRLKPEDTAVYYCYAYGGGDYWGQGTQVTVSS | high polyreactivity |
| QVQLVESGGGLVQAGASLRLSCAASGSIFFPYAMGWYRQAPGKERELVASITRAGSTNYADSVKGRFTISRDNAKNTVYLQMTSQKPVDTAVYYCAARNYRQFEYGYWGQGTLVTVSS | low polyreactivity |
| QVQLVESGGGLVQAGASLRLSCAASGSTFLRNAMGWYRQAPGKKGSWVATISYDGDSTYYADSVKGRFTISRDNTKNTVYLQMNSLKPEDPAVYYCAASYSLTFWDKDDYWGQGTQVSVSS | low polyreactivity |
| QVQLVESGGGLVQAGASLRLSCAASGSTFYGNTMGWYRQAPGKERELVAAITSTGRTYYADSVKGRFTLSRDNAKNTVYLQMNSLKPEDTAVYYCAASQRRRFQRPSFDYWGQGPQVTVSS | high polyreactivity |
| QVQLVESGGGLVQAGASLRLSCAASGSTFYVNAMGWYRQAPGKERELVASISSSSGSTYYADSVKRRFTISRDNAKNTVYFQMNSLKPEDTAVYYCAAEVGIFIWFDYWGQGTQVTVSS | low polyreactivity |
| QVQLVESGGGLVQAGASLRLSCAASGSTLWYYAMGWYRQAPGKERELVADITSSGNTNYADSVKGRFTISRDNAKNTVYLQMNSLKPEDTAVYYCAADSANYQWYLSWQKDDYWGQGTKVTVSS | low polyreactivity |
